Earlier results on two substances are cited in paper PMC3491057, “Proliferating Cell Nuclear Antigen (PCNA) Interactions in Solution Studied by NMR” (PLoS ONE, 2012).

In this series the target is T1, human PCNA (Homo sapiens, UniProt P12004).
T1 construct: His6 tag with PreScission protease cleavage site (N, cleaved yes); made in house; host or cells: E. coli
Conditions: PIP-box fragments. An excerpt:
The CDK inhibitor p21 mediates the cellular response to DNA damage by arresting the cell cycle at the G1 phase, inhibiting the progression into the S phase and thus DNA replication. It is an intrinsically disordered protein with an N-terminal sequence similar to other CDK-inhibitory proteins (including p27^Kip1, p57^Kip2, and p27^XIC1) and a C-terminal region containing a PIP-box. […] The smallest p21 fragment still competing with p21^20 ... || We have characterized the thermodynamics of the p21^20 and p21^12 peptides binding to PCNA by Isothermal Titration Calorimetry (ITC) in the same buffer (PBS pH 7.0) and at the same temperature (35°C) as the NMR experiments described below (Figure 3 and Figure S2). To allow comparison with data in the literature for the p21^20 [34], ITC experiments were also carried out at 30°C.

T1 sequence (P12004 whole entry): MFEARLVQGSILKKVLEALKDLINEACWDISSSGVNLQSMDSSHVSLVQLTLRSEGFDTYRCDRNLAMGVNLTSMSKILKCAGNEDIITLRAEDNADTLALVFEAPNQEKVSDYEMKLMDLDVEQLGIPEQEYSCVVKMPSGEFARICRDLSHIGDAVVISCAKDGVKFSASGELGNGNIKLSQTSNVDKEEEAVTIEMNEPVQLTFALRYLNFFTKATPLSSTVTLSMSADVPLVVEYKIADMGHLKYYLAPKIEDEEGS

Take “Fen-1^22: PIP-box fragment of Flap endonuclease 1 (SRQGSTQGRLDDFFKVTGSL)”: the equilibrium dissociation constant (Kd) is 60 µM. For “p66^22: PIP-box fragment of p66, subunit 3 of human replicative DNA polymerase-δ (POLD3) (KANRQVSITGFFQRK)”, the dissociation constant Kd is 1.5 µM.

Usually Kd stands for the constant that tells how readily two partners part at equilibrium.
